Test results published in PMC6774519.

Columns and labels:
[1] = system: #B1-3 anti-m6A monoclonal antibody (guinea pig (Hartley)); assay: UV crosslinking, IP and RT truncation (footprinting); conditions: 41 clones sequenced; m6A at position 14; SPR: Biacor T100, HBS-EP+ buffer, 30 ul/min, biotin-RNA at 20 RU on SA chip, antibody 0-27 nM, 1:1 fit; ELISA: PBS, 3 h, room temperature; UV-crosslink IP: …
[2] = system: #B1-1 anti-m6A monoclonal antibody (guinea pig (Hartley)); assay: SPR; conditions: m6A at position 6; SPR: Biacor T100, HBS-EP+ buffer, 30 ul/min, biotin-RNA at 20 RU on SA chip, antibody 0-27 nM, 1:1 fit; ELISA: PBS, 3 h, room temperature; UV-crosslink IP: …
[3] = system: #B1-3 anti-m6A monoclonal antibody (guinea pig (Hartley)); assay: SPR; conditions: m6A at position 6; SPR: Biacor T100, HBS-EP+ buffer, 30 ul/min, biotin-RNA at 20 RU on SA chip, antibody 0-27 nM, 1:1 fit; ELISA: PBS, 3 h, room temperature; UV-crosslink IP: …
[4] = system: #B1-3 anti-m6A monoclonal antibody (guinea pig (Hartley)); assay: pull-down (protein A IP); conditions: m6A at position 6; SPR: Biacor T100, HBS-EP+ buffer, 30 ul/min, biotin-RNA at 20 RU on SA chip, antibody 0-27 nM, 1:1 fit; ELISA: PBS, 3 h, room temperature; UV-crosslink IP: …

Sequence	binding signal (% RT truncations at m6A) [1]	Kd [2] [nM]	Kd [3] [nM]	binding signal (% immunoprecipitated) [4]
AUCAUCUUUCGGGACUGACCUGAAAUGAACCCUA [Snord-oligo (Snord2, 34 nt)]	68	–	–	–
NNNGGACNNN [m6A-oligo]	–	2.5	6.5	35
